Results: the RNAGym collection of RNA variant scans (doi:10.7554/elife.90254)

B1: OR4K15 (parent)
chain: GUUAACGGUCAUAGGCCAUGGAAACUAGGAGCACCAUUUCGCUGCCAGUGAAGAAAUGAACAAAGAAAAUCUGGGCCAGGCAGGCAUCAAAAGAAAUAGUCUUGCGCUCAACCAGAAAGUCUGUAAUCAUUUUAAGGGUA

Variants of: B1
Assay: self-cleavage, relative activity (ratio to wild type); higher = more cleavage; in vitro, sequencing; the parent is a self-cleaving ribozyme

Variant | self-cleavage
GUUAACGGUCAUAGGCCAUGGAAACUAGGAGCACCAUUUCGCUGCCAGUGAAGAAAUGUACAAAGAAAAUCUGGGCCAGGCAGGCAUCAAAAGAAAUAGUCUUGCGCUCAACCAGAAAGUCUGUAAUCAUUUUAAGGGUA | 1.14
GUUAACGGUCAUAGGCCAUGGAAACUAGGAGCACCAUUUCGCUGCCAGUGAAGAAAUGUACAAAGAAAAUCUGGGCCGGGCAGGCAUCAAAAGAAAUAGUCUUGCGCUCAACCAGAAAGUCUGUAAUCAUUUUAAGGGUA | 0.27
GUUAACGGUCAUAGGCCAUGGAAACUAGGAGCACCAUUUCGCUGCCAGUGAAGAAAUGUACAAAGAAAAUCUGGGCCUGGCAGGCAUCAAAAGAAAUAGUCUUGCGCUCAACCAGAAAGUCUGUAAUCAUUUUAAGGGUA | 0.31
GUUAACGGUCAUAGGCCAUGGAAACUAGGAGCACCAUUUCGCUGCCAGUGAAGAAAUGUACAAAGAAGAUCUGGGCCAGGCAGGCAUCAAAAGAAAUAGUCUUGCGCUCAACCAGAAAGUCUGUAAUCAUUUUAAGGGUA | 1.43
GUUAACGGUCAUAGGCCAUGGAAACUAGGAGCACCAUUUCGCUGCCAGUGAAGAAAUGUACAAAGAACAUCUGGGCCAGGCAGGCAUCAAAAGAAAUAGUCUUGCGCUCAACCAGAAAGUCUGUAAUCAUUUUAAGGGUA | 1.35
GUUAACGGUCAUAGGCCAUGGAAACUAGGAGCACCAUUUCGCUGCCAGUGAAGAAAUGGACAAAGAAAAUCUGGGCCAGGCAGGCAUCAAAAGAAAUAGUCCUGCGCUCAACCAGAAAGUCUGUAAUCAUUUUAAGGGUA | 1.5
GUUAACGGUCAUAGGCCAUGGAAACUAGGAGCACCAUUUCGCUGCCAGUGAAGAAAUGGACAAAGAAAAUCUGGGCCAGGCAGGCAUCAAAAGAAAUAGUCAUGCGCUCAACCAGAAAGUCUGUAAUCAUUUUAAGGGUA | 0.81
GUUAACGGUCAUAGGCCAUGGAAACUAGGAGCACCAUUUCGCUGCCAGUGAAGAAAUGGACAAAGAAAAUCUGGGCCAGGCAGGCAUCAAAAGAAAUAGUCUUGCGCCCAACCAGAAAGUCUGUAAUCAUUUUAAGGGUA | 0.02
GUUAACGGUCAUAGGCCAUGGAAACUAGGAGCACCAUUUCGCUGCCAGUGAAGAAAUGGACAAAGAAAAUCUGGGCCAGGCAGGCAUCAAAAGAAAUAGUCUUGCGCACAACCAGAAAGUCUGUAAUCAUUUUAAGGGUA | 0.01
GUUAACGGUCAUAGGCCAUGGAAACUAGGAGCACCAUUUCGCUGCCAGUGAAGAAAUGGACAAAGAAAAUCUGGGCCAGGCAGGCAUCAAAAGAAAUAGCCUUGCGCUCAACCAGAAAGUCUGUAAUCAUUUUAAGGGUA | 2.06
GUUAACGGUCAUAGGCCAUGGAAACUAGGAGCACCAUUUCGCUGCCAGUGAAGAAAUGGACAAAGAAAAUCUGGGCCAGGCAGGCAUCAAAAGAAAUAGACUUGCGCUCAACCAGAAAGUCUGUAAUCAUUUUAAGGGUA | 0.63
GUUAACGGUCAUAGGCCAUGGAAACUAGGAGCACCAUUUCGCUGCCAGUGAAGAAAUGGACAAAGAAAAUCUGGGCCAGGCAGGCAUCAAAAGAAAUAGUCUUGCGCUCAACCAGAAAGUCUGUAAUCAUUGUAAGGGUA | 1.41
GUUAACGGUCAUAGGCCAUGGAAACUAGGAGCACCAUUUCGCUGCCAGUGAAGAAAUGGACAAAGAAAAUCUGGGCCAGGCAGGCAUCAAAAGAAAUAGUCUUGCGCUCAACCAGAAAGUCUGUAAUCAUUCUAAGGGUA | 0.46
GUUAACGGUCAUAGGCCAUGGAAACUAGGAGCACCAUUUCGCUGCCAGUGAAGAAAUGGACAAAGAAAAUCUGGGCCAGGCAGGCAUCAAAAGAAAUAGUCUUGCGCUCAACCAGAAAGCCUGUAAUCAUUUUAAGGGUA | 0.97
GUUAACGGUCAUAGGCCAUGGAAACUAGGAGCACCAUUUCGCUGCCAGUGAAGAAAUGGACAAAGAAAAUCUGGGCCAGGCAGGCAUCAAAAGAAAUAGUCUCGCGCUCAACCAGAAAGUCUGUAAUCAUUUUAAGGGUA | 0.67
GUUAACGGUCAUAGGCCAUGGAAACUAGGAGCACCAUUUCGCUGCCAGUGAAGAAAUGGACAAAGAAAAUCUGGGCCAGGCAGGCAUCAAAAGAAAUAGUCUUGCGCUCAACCAGAAAGUCUGUAAUCACUUUAAGGGUA | 1.52
GUUAACGGUCAUAGGCCAUGGAAACUAGGAGCACCAUUUCGCUGCCAGUGAAGAAAUGGACAAAGAAAAUCUGGGCCAGGCAGGCAUCAAAAGAAAUAGUCUUGCGCUCAACCAGAAAGUCUGUAAUCAGUUUAAGGGUA | 1.62
GUUAACGGUCAUAGGCCAUGGAAACUAGGAGCACCAUUUCGCUGCCAGUGAAGAAAUGUACAGAGAAAAUCUGGGCCAGGCAGGCAUCAAAAGAAAUAGUCUUGCGCUCAACCAGAAAGUCUGUAAUCAUUUUAAGGGUA | 1.22
GUUAACGGUCAUAGGCCAUGGAAACUAGGAGCACCAUUUCGCUGCCAGUGAAGAAAUGUACAAAGAGAAUCUGGGCCAGGCAGGCAUCAAAAGAAAUAGUCUUGCGCUCAACCAGAAAGUCUGUAAUCAUUUUAAGGGUA | 1.25
GUUAACGGUCAUAGGCCAUGGAAACUAGGAGCACCAUUUCGCUGCCAGUGAAGAAAUGGACAAAGAAAAUCUGGGCCAGGCAGGCAGCAAAAGAAAUAGUCUUGCGCUCAACCAGAAAGUCUGUAAUCAUUUUAAGGGUA | 0.3
GUUAACGGUCAUAGGCCAUGGAAACUAGGAGCACCAUUUCGCUGCCAGUGAAGAAAUGGACAAAGAAAAUCUGGGCCAGGCAGGCAUCAAAAGAAAUAGUCUUGCGCUCAACCAGAAAGUCAGUAAUCAUUUUAAGGGUA | 1.38
